Measurements published in patent US20240059789A1 (Janssen / Centocor, published 2024).
Substitutions are numbered along the chain they refer to.

T1: Avi-6xHis-GS-cyno PSMA ECD (PSMW1) (Macaca fascicularis, UniProt Q04609 48-750 (human entry))
T1 construct: also called PSMW1.009; cy PSMA
T1 chain: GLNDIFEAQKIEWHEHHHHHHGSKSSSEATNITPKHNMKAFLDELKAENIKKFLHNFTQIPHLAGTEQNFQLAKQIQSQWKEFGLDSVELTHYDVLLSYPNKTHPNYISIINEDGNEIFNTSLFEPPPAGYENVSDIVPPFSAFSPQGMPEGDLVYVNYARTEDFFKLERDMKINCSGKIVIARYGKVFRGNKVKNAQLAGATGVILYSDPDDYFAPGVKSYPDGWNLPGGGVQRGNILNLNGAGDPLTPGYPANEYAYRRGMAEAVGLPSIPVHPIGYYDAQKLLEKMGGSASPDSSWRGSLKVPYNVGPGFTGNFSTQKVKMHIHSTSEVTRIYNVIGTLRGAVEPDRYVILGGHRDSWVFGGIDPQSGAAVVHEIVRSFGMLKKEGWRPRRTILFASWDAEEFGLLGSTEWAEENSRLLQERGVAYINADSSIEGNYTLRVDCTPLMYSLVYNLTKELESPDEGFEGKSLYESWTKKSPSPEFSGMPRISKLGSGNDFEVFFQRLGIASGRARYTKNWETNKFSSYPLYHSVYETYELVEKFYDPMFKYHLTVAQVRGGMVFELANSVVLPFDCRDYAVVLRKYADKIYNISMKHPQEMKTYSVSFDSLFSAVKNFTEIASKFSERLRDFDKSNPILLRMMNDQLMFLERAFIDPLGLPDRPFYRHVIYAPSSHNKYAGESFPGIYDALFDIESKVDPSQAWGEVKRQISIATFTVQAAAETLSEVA

B1: PS3B925 (bispecific antibody, human IgG1, kappa, lambda, L234A L235A)
heavy 1: EVQLVESGGGLVKPGGSLRLSCAASGFTFSRYNMNWVRQAPGKGLEWVSSISTSSNYIYYADSVKGRFTFSRDNAKNSLDLQMSGLRAEDTAIYYCTRGWGPFDYWGQGTLVTVSSASTKGPSVFPLAPSSKSTSGGTAALGCLVKDYFPEPVTVSWNSGALTSGVHTFPAVLQSSGLYSLSSVVTVPSSSLGTQTYICNVNHKPSNTKVDKKVEPKSCDKTHTCPPCPAPEAAGGPSVFLFPPKPKDTLMISRTPEVTCVVVSVSHEDPEVKFNWYVDGVEVHNAKTKPREEQYNSTYRVVSVLTVLHQDWLNGKEYKCKVSNKALPAPIEKTISKAKGQPREPQVYTLPPSREEMTKNQVSLTCLVKGFYPSDIAVEWESNGQPENNYKTTPPVLDSDGSFLLYSKLTVDKSRWQQGNVFSCSVMHEALHNHYTQKSLSLSP
light 1: DIQMTQSPSSLSASVGDRVTITCRARQSIGTAIHWYQQKPGKAPKLLIKYASESISGVPSRFSGSGSGTDFTLTISSLQPEDFATYYCQQSGSWPYTFGQGTKLEIKRTVAAPSVFIFPPSDEQLKSGTASVVCLLNNFYPREAKVQWKVDNALQSGNSQESVTEQDSKDSTYSLSSTLTLSKADYEKHKVYACEVTHQGLSSPVTKSFNRGEC
heavy 2: EVQLVESGGGLVQPGGSLRLSCTASGFIFSSYAMSWVRQAPGKGLEWVSAISGGYGAPYYADTVKGRFTISRDNSKNTLYLQMNSLRAEDTAVYYCAKDGVGATPYYFDDWGQGILVTVSSASTKGPSVFPLAPSSKSTSGGTAALGCLVKDYFPEPVTVSWNSGALTSGVHTFPAVLQSSGLYSLSSVVTVPSSSLGTQTYICNVNHKPSNTKVDKKVEPKSCDKTHTCPPCPAPEAAGGPSVFLFPPKPKDTLMISRTPEVTCVVVSVSHEDPEVKFNWYVDGVEVHNAKTKPREEQYNSTYRVVSVLTVLHQDWLNGKEYKCKVSNKALPAPIEKTISKAKGQPREPQVYTLPPSREEMTKNQVSLTCLVKGFYPSDIAVEWESNGQPENNYKTTPPVLDSDGSFFLYSRLTVDKSRWQQGNVFSCSVMHEALHNHYTQKSLSLSPG
light 2: QSVLTQPPSVSAAPGQKVTISCSGSSSNIGNNYVSWYQQLPGTAPKLLIFDNNKRPSGIPDRFSGSKSGTSATLGITGLQTGDEADYYCGTWDSSLSAYVFGTGTKVTVLGQPKAAPSVTLFPPSSEELQANKATLVCLISDFYPGAVTVAWKADSSPVKAGVETTTPSKQSNNKYAASSYLSLTPEQWKSHRSYSCQVTHEGSTVEKTVAPTECS
B2: PS3B933 (bispecific antibody, human IgG1, kappa, lambda, L234A L235A)
heavy 1: B1 heavy 1
light 1: B1 light 1
heavy 2: B1 heavy 2 with T23A, I28T, Y55S, A57S, P58T, T63S, T91S, D110Y, I115T
light 2: B1 light 2 with F50Y
B3: PS3B934 (bispecific antibody, human IgG1, kappa, lambda, L234A L235A)
heavy 1: B1 heavy 1
light 1: B1 light 1
heavy 2: B1 heavy 2 with T23A, I28T, Y55I, A57S, P58T, T63S, Y80W, D110Y, I115T
light 2: B1 light 2 with N31I, F50Y, Y99V, T103G, V107L
B4: PS3B935 (bispecific antibody, human IgG1, kappa, lambda, L234A L235A)
heavy 1: B1 heavy 1
light 1: B1 light 1
heavy 2: B1 heavy 2 with T23A, I28T, Y55S, A57S, P58T, T63S, T91S, D110Y, I115T
light 2: B1 light 2 with N31I, F50Y, Y99V, T103G, V107L
B5: PS3B913 (bispecific antibody, human IgG1, lambda, L234A L235A)
heavy 1: QVQLQQSGPRLVRPSQTLSLTCAISGDSVFNNNAAWSWIRQSPSRGLEWLGRTYYRSKWLYDYAVSVKSRITVNPDTSRNQFTLQLNSVTPEDTALYYCARGYSSSFDYWGQGTLVTVSSASTKGPSVFPLAPSSKSTSGGTAALGCLVKDYFPEPVTVSWNSGALTSGVHTFPAVLQSSGLYSLSSVVTVPSSSLGTQTYICNVNHKPSNTKVDKKVEPKSCDKTHTCPPCPAPEAAGGPSVFLFPPKPKDTLMISRTPEVTCVVVSVSHEDPEVKFNWYVDGVEVHNAKTKPREEQYNSTYRVVSVLTVLHQDWLNGKEYKCKVSNKALPAPIEKTISKAKGQPREPQVYTLPPSREEMTKNQVSLTCLVKGFYPSDIAVEWESNGQPENNYKTTPPVLDSDGSFLLYSKLTVDKSRWQQGNVFSCSVMHEALHNHYTQKSLSLSPG
light 1: QSALTQPASVSGSPGQSITISCTGTSSNIGTYKFVSWYQQHPDKAPKVLLYEVSKRPSGVSSRFSGSKSGNTASLTISGLQAEDQADYHCVSYAGSGTLLFGGGTKLTVLGQPKAAPSVTLFPPSSEELQANKATLVCLISDFYPGAVTVAWKADSSPVKAGVETTTPSKQSNNKYAASSYLSLTPEQWKSHRSYSCQVTHEGSTVEKTVAPTECS
heavy 2: not shown
light 2: not shown
B6: PS3B915 (bispecific antibody, human IgG1, lambda, L234A L235A)
heavy 1: B5 heavy 1
light 1: B5 light 1
heavy 2: not shown
light 2: not shown
B7: PSMB891 (antibody, human IgG1, lambda, L234A L235A, V domains shown)
VH: EVQLVESGGGVVQPGRSLRLSCAASGFTFITYGMHWVRQAPGKGLEWVAVVSFDESNKYYADSVKGRFTISRDNSKNTLYLQMNSLRAEDTAVYYCARALRDGNNWDYFNGMDVWGQGTTVTVSS
VL: not shown
B8: PSMB895 (antibody, human IgG1, lambda, L234A L235A, V domains shown)
VH: EVQLVESGGGLVQPGGSLRLSCAASGFTFSSYAMSWVRQAPGKGLEWVSAISGGIGSTYYADSVKGRFTISRDNSKNTLWLQMNSLRAEDTAVYYCAKDGVGATPYYFDYWGQGTLVTVSS
VL: QSVLTQPPSVSAAPGQKVTISCSGSSSNIGNNYVSWYQQLPGTAPKLLIYDNNKRPSGIPDRFSGSKSGTSATLGITGLQTGDEADYYCGTWDSSLSAYVFGTGTKVTVLG
B9: PSMB898 (antibody, human IgG1, lambda, L234A L235A, V domains shown)
VH: B8 VH with I55S, W80Y, T91S
VL: B8 VL with N31I, Y99V, T103G, V107L
B10: PSMB897 (antibody, human IgG1, lambda, L234A L235A, V domains shown)
VH: B8 VH with I55S, W80Y, T91S
VL: B8 VL
B11: PSMB899 (antibody, human IgG1, lambda, L234A L235A, V domains shown)
VH: B8 VH with A23T, T28I, I55Y, S57A, T58P, S63T, W80Y, Y110D, T115I
VL: B8 VL with Y50F
B12: PSMB890 (antibody, human IgG1, lambda, L234A L235A, V domains shown)
VH: EVQLVESGGGLVKPGGSLRLSCAASGFTFSRYNMNWVRQAPGKGLEWVSSINSNSRYIYYADSVKGRFTISRDSAKNSLYLQMNSLRAEDTAVYYCAKTMGDYYYYYGMDVWGQGTTVTVSS
VL: SSELTQPPSVSGAPGQRVTISCAGSLSNIGAGYDVHWYQQLPGTAPKLLIYGNINRLSGVPERFSGSKSGTSASLAITGLQAEDGADYYCQSYDSSLSSYVFGTGTKVTVLG

Target: Human CD3 on T cells / Jurkat cells (human, UniProt P07766 23-207)
Sequence (P07766 23-207 limits assumed): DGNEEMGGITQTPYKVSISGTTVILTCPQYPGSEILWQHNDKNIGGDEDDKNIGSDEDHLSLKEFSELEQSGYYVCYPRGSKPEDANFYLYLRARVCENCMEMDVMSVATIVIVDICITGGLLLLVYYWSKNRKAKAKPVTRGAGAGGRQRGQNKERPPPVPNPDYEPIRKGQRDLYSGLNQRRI
Assay: cell-based or functional assay

Row | T cell activation EC50 [M] (CD25+ T cells, C4-2B co-culture, 72 h) | Binder
1 | 4.59e-12 M | B1
2 | 6.01e-11 M | B2
3 | 4.81e-12 M | B3
4 | 6.72e-12 M | B4
5 | 1.55e-10 M | B5
6 | 1e-08 M | B6

Target: T2, Human PSMA on prostate cancer cell lines (C4-2B, 22RV1) (human, UniProt Q04609 1-750)
T2 sequence (Q04609 whole entry): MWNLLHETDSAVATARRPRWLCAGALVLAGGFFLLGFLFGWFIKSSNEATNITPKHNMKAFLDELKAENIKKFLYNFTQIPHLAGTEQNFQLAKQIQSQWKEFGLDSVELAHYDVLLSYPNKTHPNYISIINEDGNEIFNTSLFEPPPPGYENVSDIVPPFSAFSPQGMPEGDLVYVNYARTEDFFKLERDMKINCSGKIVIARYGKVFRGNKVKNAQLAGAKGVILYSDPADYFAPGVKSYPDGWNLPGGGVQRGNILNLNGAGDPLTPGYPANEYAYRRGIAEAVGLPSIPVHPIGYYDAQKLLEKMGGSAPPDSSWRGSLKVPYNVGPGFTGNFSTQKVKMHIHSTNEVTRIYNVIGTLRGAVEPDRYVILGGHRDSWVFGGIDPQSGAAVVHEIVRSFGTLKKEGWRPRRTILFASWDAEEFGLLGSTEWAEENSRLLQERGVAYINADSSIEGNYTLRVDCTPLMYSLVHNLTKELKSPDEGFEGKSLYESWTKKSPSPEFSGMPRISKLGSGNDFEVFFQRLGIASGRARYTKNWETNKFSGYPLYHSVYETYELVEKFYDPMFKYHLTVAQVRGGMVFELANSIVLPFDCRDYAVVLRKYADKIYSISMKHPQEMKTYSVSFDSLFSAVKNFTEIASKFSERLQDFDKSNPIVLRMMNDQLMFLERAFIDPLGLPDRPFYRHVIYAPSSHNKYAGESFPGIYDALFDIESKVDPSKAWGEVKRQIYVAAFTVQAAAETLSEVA
Assay: cell-based or functional assay

Row | Binder | Tumor killing EC50 [M] (C4-2B + PAN-T cells, 72 h, flow cytometry)
7 | B1 | 7.98e-12 M
8 | B2 | 4.76e-11 M
9 | B3 | 7.24e-12 M
10 | B4 | 7.16e-12 M
11 | B5 | 3.11e-10 M
12 | B6 | 1e-08 M

Target: T2, Human PSMA on prostate cancer cell …
Assay: flow cytometry on C4-2B cells
Procedure: (§1) Selected anti-PSMA antibodies were evaluated for binding to commercial prostate cancer cell lines. C4-2B cells were originally developed at MD Anderson and are derived from LNCaP FGC grown in vivo and metastasize to bone marrow (Thalmann, et al 1994, Cancer Research 54, 2577-81). 22Rv1 cells are a human prostate carcinoma epithelial cell line derived from a xenograft that was serially propagated in mice after castration-induced regression and relapse of the parental, androgen-dependent CWR22 xenograft. 22RV1 and C4-2B cells were plated at 50,000 cells per well in 50 μl of assay medium (RPMI, 10% HI FBS) in V bottom plates. Serial dilutions of antibodies were prepared in assay medium with 50 μl of antibody dilutions added to the plates containing cells. The plates were incubated for 60 min at 37° C. at which time 100 μl of staining buffer (Becton Dickinson Cat #554657) was added to all wells of each plate. The plates were centrifuged at 300×G for 5 minutes and the medium was removed from the wells. 200 μl of staining buffer was added to all wells of each plate. The plates were centrifuged at 300×G for 5 minutes and the medium was removed from the wells. 50 μl of 2 μg/ml AlexaFluor647-labeled goat anti-human Fc was added to all wells of the plates and the plates were incubated for 30 minutes at 4° C. 150 μl of staining buffer was added to all wells of each plate. The plates were centrifuged at 300×G for 5 minutes and the medium was removed from the wells.

Row | EC50 | Binder
13 | 1.99 nM | B7
14 | 5.09 nM | B8
15 | 6.53 nM | B9
16 | 4.76 nM | B10
17 | 5.58 nM | B11
18 | 0.941 nM | B12

Target: T3, Human PSMA ECD (Lys44-Ala750), N-6xHis (PSMW39) (human, UniProt Q04609 44-750)
T3 construct: also called PSMW39.002; hu PSMA
T3 sequence (Q04609 other isoform, or with tags, fused parts or gaps): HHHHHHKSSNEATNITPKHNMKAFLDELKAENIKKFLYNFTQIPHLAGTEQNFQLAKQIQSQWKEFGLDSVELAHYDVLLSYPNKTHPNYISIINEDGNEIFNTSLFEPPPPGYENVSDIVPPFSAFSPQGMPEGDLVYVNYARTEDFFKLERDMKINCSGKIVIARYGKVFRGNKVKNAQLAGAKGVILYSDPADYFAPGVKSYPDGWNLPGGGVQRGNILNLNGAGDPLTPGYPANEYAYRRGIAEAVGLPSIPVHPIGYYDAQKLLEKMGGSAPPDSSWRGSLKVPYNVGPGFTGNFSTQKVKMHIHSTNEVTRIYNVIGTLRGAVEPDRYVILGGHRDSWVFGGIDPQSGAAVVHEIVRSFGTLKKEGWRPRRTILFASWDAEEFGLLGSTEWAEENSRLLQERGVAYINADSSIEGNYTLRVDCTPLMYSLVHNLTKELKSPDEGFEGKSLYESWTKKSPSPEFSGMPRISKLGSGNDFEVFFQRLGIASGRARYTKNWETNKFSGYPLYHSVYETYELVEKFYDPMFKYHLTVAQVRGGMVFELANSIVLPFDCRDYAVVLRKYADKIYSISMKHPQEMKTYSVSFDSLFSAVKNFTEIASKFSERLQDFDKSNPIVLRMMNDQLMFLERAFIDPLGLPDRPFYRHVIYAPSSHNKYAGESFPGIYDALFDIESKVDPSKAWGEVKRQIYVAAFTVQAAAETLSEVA
Assay: SPR Biacore 8K, mAb captured by anti-Fc, antigen in solution
Procedure: (§2) The association and dissociation were monitored for 3 and 15 minutes, respectively, using a flow rate of 50 μL/min. Raw binding data was referenced by subtracting the analyte binding signals from blanks and analyzed using a 1:1 Langmuir binding model using the Biacore Insight evaluation software to obtain the kinetics, which were used to calculate the binding affinity. The anti-PSMA were captured using an anti-human Fc antibody and the antigens were injected in solution.

Row | Kd | Binder
19 | ≤ 0.253 nM | B7
20 | 0.704 nM | B8
21 | 0.333 nM | B9
22 | 1.28 nM | B10
23 | 0.132 nM | B11

Target: T1, Avi-6xHis-GS-cyno PSMA ECD (PSMW1)
Assay: as above
Procedure: as §2

Row | Kd | Binder
24 | ≤ 0.21 nM | B7
25 | 2.83 nM | B8
26 | 1.19 nM | B9
27 | 3.93 nM | B10
28 | 1.47 nM | B11

Target: T2, Human PSMA on prostate cancer cell …
Assay: flow cytometry on 22RV1 cells
Procedure: as §1

Row | EC50 | Binder
29 | 0.554 nM | B7
30 | 1.71 nM | B8
31 | 2.07 nM | B9
32 | 2.26 nM | B10
33 | 1.02 nM | B11
34 | 1.71 nM | B12
